Values joined by “and” are separate entries in the source; they are usually repeats but may differ in a detail not shown here. Equal values may be shown once.

Common to all, as to test: peptide microarray
One assay concerns the target T1, Peptide_060.
T1 sequence (peptide): LKHQPGGGKVQIINK

A further assay has as its target T2, Peptide_059.
T2 sequence (peptide): STENLKHQPGGGKVQ

For the next assay, the target named is T3, Peptide_061.
T3 sequence (peptide): PGGGKVQIINKKLDL

The target in another assay is T4, Peptide_051.
T4 sequence (peptide): RTPPKSPSSAKSRLQ

B1: mAb TRC35 (antibody, V domains shown)
VH: QVQLQQPGTELVKPGASVKLSCKASGYTFTSYWLQWVKQRPGQGLEWIGEIDPSDSYTNYNQKFKGKATLTVDTSSSTAYMQLSSLTSEDSAVYYCATLTGSWGQGTTLAVSS
VL: DVLLTQTPLSLPVSLGDQASISCRASQSIVDSNGNTFLEWYLQKSGQSPKVLIYKVSNRFSGVPDRFSGRGSGTDFTLKISRVEAEDLGVYYCFQGSHVPYTFGGGTKLEIK
For the molecule B1, the fluorescence intensity with Peptide_060 was 793 and 655; in the assay with Peptide_059 it was 204 and 126; with Peptide_061, 157 and 114; in the assay with Peptide_051, 151 and 83.3.
